# Patent US20070089183A1 (WASHINGTON STATE UNIVERSITY, published 2007)
# B1: synthetic DWF1 CaM-binding peptide (518-539), CRKKYRAIGTFMSVYYKSKKGR (peptide)
# peptide: CRKKYRAIGTFMSVYYKSKKGR
# notes: also called synthetic DWF1 CaMBD
# Biological target: dansyl-CaM (Sigma) (Homo sapiens (Human), UniProt P0DP23 2-149)
# Test: fluorescence titration of dansyl-CaM with increasing amounts of peptide
binder,measurement,value
B1,Kd,24.2 nM
